Biological target: rHDL-apoA-I (reconstituted discoidal HDL particles carrying apolipoprotein A-I)

Row | Protein | A2 (%), amplitude of the slow phase of inactivation on apoA-I rHDL | activation level of lactonase activity by rHDL-apoA-I, against 192Q | stated: enzymatic activity stimulated by a 50-fold molar excess of rHDl-apoA-I (% Activity Stimulation, delipidated enzyme as reference), six substrates [panel B] | Kapp (µM), substrate TBBL | Kapp (µM), substrate paraoxon | Kapp (µM), substrate phenyl acetate | Kapp (µM), substrate γ-dodecanoic lactone | Kapp (µM), substrate δ-nonanoic lactone | Kapp (µM), substrate δ-valerolactone | Vmax (%), enzymatic activation by apoA-I rHDL, substrate TBBL | Vmax (%), enzymatic activation by apoA-I rHDL, substrate paraoxon | Vmax (%), enzymatic activation by apoA-I rHDL, substrate phenyl acetate | Vmax (%), enzymatic activation by apoA-I rHDL, substrate γ-dodecanoic lactone | Vmax (%), enzymatic activation by apoA-I rHDL, substrate δ-nonanoic lactone | Vmax (%), enzymatic activation by apoA-I rHDL, substrate δ-valerolactone | fold higher fraction of HDL-bound protein than the Q isozyme (from inactivation/stability measurements; reference rePON1-192Q) | reduction of Vmax of stimulation by rHDL compared to wt rePON1-192K
1 | human PON1-192R (protein) AKLIALTLLGMGLALFRNHQSSYQTRLNALREVQPVELPNCNLVKGIETGSEDLEILPNGLAFISSGLKYPGIKSFNPNSPGKILLMDLNEEDPTVLELGITGSKFDVSSFNPHGISTFTDEDNAMYLLVVNHPDAKSTVELFKFQEEEKSLLHLKTIRHKLLPNLNDIVAVGPEHFYGTNDHYFLDPYLRSWEMYLGLAWSYVVYYSPSEVRVVAEGFDFANGINISPDGKYVYIAELLAHKIHVYEKHANWTLTPLKSLDFNTLVDNISVDPETGDLWVGCHPNGMKIFFYDSENPPASEVLRIQNILTEEPKVTQVYAENGTVLQGSTVASVYKGKLLIGTVFHKALYCEL | 87% | about 2-fold higher activation level than 192Q | dark bars: about 650 to 750 % with γ-dodecanoic lactone, δ-valerolactone and δ-nonanoic lactone, about 450 % with TBBL, about 200 to 250 % with phenyl acetate and paraoxon; higher than the 192Q bar with every lactone | – | – | – | – | – | – | – | – | – | – | – | – | – | –
2 | human PON1-192Q (protein) AKLIALTLLGMGLALFRNHQSSYQTRLNALREVQPVELPNCNLVKGIETGSEDLEILPNGLAFISSGLKYPGIKSFNPNSPGKILLMDLNEEDPTVLELGITGSKFDVSSFNPHGISTFTDEDNAMYLLVVNHPDAKSTVELFKFQEEEKSLLHLKTIRHKLLPNLNDIVAVGPEHFYGTNDHYFLDPYLQSWEMYLGLAWSYVVYYSPSEVRVVAEGFDFANGINISPDGKYVYIAELLAHKIHVYEKHANWTLTPLKSLDFNTLVDNISVDPETGDLWVGCHPNGMKIFFYDSENPPASEVLRIQNILTEEPKVTQVYAENGTVLQGSTVASVYKGKLLIGTVFHKALYCEL | 72% | – | white bars: about 280 % with γ-dodecanoic lactone, about 420 to 440 % with δ-valerolactone and δ-nonanoic lactone, about 250 % with TBBL, about 170 to 210 % with phenyl acetate and paraoxon; lower than the 192R bar with every lactone, close to it with phenyl acetate and paraoxon | – | – | – | – | – | – | – | – | – | – | – | – | – | –
3 | wt rePON1-192K (protein) MAKLTALTLLGLGLALFDGQKSSFQTRFNVHREVTPVELPNCNLVKGVDNGSEDLEILPNGLAFISSGLKYPGIMSFDPDKSGKILLMDLNEEDPVVLELGITGNTLDISSFNPHGISTFTDEDNTVYLLVVNHPDSSSTVEVFKFQEEEKSLLHLKTIRHKLLPSVNDIVAVGPEHFYATNDHYFADPYLKSWEMHLGLAWSFVTYYSPNDVRVVAEGFDFANGINISPDGKYVYIAELLAHKIHVYEKHANWTLTPLKSLDFDTLVDNISVDPVTGDLWVGCHPNGMRIFYYDPKNPPGSEVLRIQDILSEEPKVTVVYAENGTVLQGSTVAAVYKGKLLIGTVFHKALYCEL | 100% | – | – | 0.5 µM | 0.6 µM | 0.5 µM | 1.2 µM | 1.3 µM | 1.3 µM | 791% | 222% | 425% | 1830% | 1580% | 1720% | a 3-fold higher fraction of HDL-bound protein as revealed from the stability measurements | –
4 | rePON1-192R (protein) MAKLTALTLLGLGLALFDGQKSSFQTRFNVHREVTPVELPNCNLVKGVDNGSEDLEILPNGLAFISSGLKYPGIMSFDPDKSGKILLMDLNEEDPVVLELGITGNTLDISSFNPHGISTFTDEDNTVYLLVVNHPDSSSTVEVFKFQEEEKSLLHLKTIRHKLLPSVNDIVAVGPEHFYATNDHYFADPYLRSWEMHLGLAWSFVTYYSPNDVRVVAEGFDFANGINISPDGKYVYIAELLAHKIHVYEKHANWTLTPLKSLDFDTLVDNISVDPVTGDLWVGCHPNGMRIFYYDPKNPPGSEVLRIQDILSEEPKVTVVYAENGTVLQGSTVAAVYKGKLLIGTVFHKALYCEL | 90% | – | – | 0.4 µM | 0.8 µM | 0.8 µM | 0.9 µM | 1.5 µM | 1.1 µM | 579% | 200% | 336% | 1260% | 1350% | 1400% | a 3-fold higher fraction of HDL-bound protein as revealed from the stability measurements | 10-30% reduction of Vmax
5 | rePON1-192Q (protein) MAKLTALTLLGLGLALFDGQKSSFQTRFNVHREVTPVELPNCNLVKGVDNGSEDLEILPNGLAFISSGLKYPGIMSFDPDKSGKILLMDLNEEDPVVLELGITGNTLDISSFNPHGISTFTDEDNTVYLLVVNHPDSSSTVEVFKFQEEEKSLLHLKTIRHKLLPSVNDIVAVGPEHFYATNDHYFADPYLQSWEMHLGLAWSFVTYYSPNDVRVVAEGFDFANGINISPDGKYVYIAELLAHKIHVYEKHANWTLTPLKSLDFDTLVDNISVDPVTGDLWVGCHPNGMRIFYYDPKNPPGSEVLRIQDILSEEPKVTVVYAENGTVLQGSTVAAVYKGKLLIGTVFHKALYCEL | 70% | – | – | 0.5 µM | 0.8 µM | 0.8 µM | 0.6 µM | 0.6 µM | 1.1 µM | 340% | 128% | 165% | 382% | 778% | 481% | – | 50-80% reduction of Vmax compared to wt rePON1-192K

— US20100028924
